Assay results: patent publication US11618906B2, “Hydroxylation techniques” (HYPHA DISCOVERY LTD., priority 2018, dated 2023)

B1: aluC09M38: cytochrome P450 aluC09 mutant T291H; amino acid sequence SEQ ID NO: 64 (protein, listed as Amycolatopsis lurida)
chain: MTDVEETTATLPLARKCPFSPPPEYERLRRESPVSRVGLPSGQTAWALTRLEDIREMLSSPHFSSDRQSPSFPLMVARQIRREDKPFRPSLIAMDPPEHSRARRDVVGEFTVKRMKALQPRIQQIVDEHLDALLAGPKPADLVQALSLPVPSLVICELLGVPYSDHEFFQSCSSRMLSREVTAEERMTAFEQLENYLDELVTKKEANATEDDLLGRQILKQRETGEADHGELVGLAFLLLIAGHETTANMISLGTVTLLENPDQLAKIKADPGKTLAAIEELLRVFTIAEHATSRFATADVEIGGTLIRAGEGVVGLSNAGNHDPDGFENPDTFDIERGARHHVAFGFGVHQCLGQNLARLELQIVFDTLFRRVPGLRIAVPVDELPFKHDSTIYGLHALPVTW
B2: aluC09M12: cytochrome P450 aluC09 mutant T291E; amino acid sequence SEQ ID NO: 12 (protein, listed as Amycolatopsis lurida)
chain: MTDVEETTATLPLARKCPFSPPPEYERLRRESPVSRVGLPSGQTAWALTRLEDIREMLSSPHFSSDRQSPSFPLMVARQIRREDKPFRPSLIAMDPPEHSRARRDVVGEFTVKRMKALQPRIQQIVDEHLDALLAGPKPADLVQALSLPVPSLVICELLGVPYSDHEFFQSCSSRMLSREVTAEERMTAFEQLENYLDELVTKKEANATEDDLLGRQILKQRETGEADHGELVGLAFLLLIAGHETTANMISLGTVTLLENPDQLAKIKADPGKTLAAIEELLRVFTIAEEATSRFATADVEIGGTLIRAGEGVVGLSNAGNHDPDGFENPDTFDIERGARHHVAFGFGVHQCLGQNLARLELQIVFDTLFRRVPGLRIAVPVDELPFKHDSTIYGLHALPVTW
B3: aluC09: wild-type cytochrome P450 aluC09 from Amycolatopsis lurida NRRL-2430; amino acid sequence SEQ ID NO: 2 (protein, listed as Amycolatopsis lurida)
chain: MTDVEETTATLPLARKCPFSPPPEYERLRRESPVSRVGLPSGQTAWALTRLEDIREMLSSPHFSSDRQSPSFPLMVARQIRREDKPFRPSLIAMDPPEHSRARRDVVGEFTVKRMKALQPRIQQIVDEHLDALLAGPKPADLVQALSLPVPSLVICELLGVPYSDHEFFQSCSSRMLSREVTAEERMTAFEQLENYLDELVTKKEANATEDDLLGRQILKQRETGEADHGELVGLAFLLLIAGHETTANMISLGTVTLLENPDQLAKIKADPGKTLAAIEELLRVFTIAETATSRFATADVEIGGTLIRAGEGVVGLSNAGNHDPDGFENPDTFDIERGARHHVAFGFGVHQCLGQNLARLELQIVFDTLFRRVPGLRIAVPVDELPFKHDSTIYGLHALPVTW

Experiments:
Assay type in all cases: biochemical
[1] = Hydroxylation of diclofenac catalysed by cytochrome P450 aluC09 and mutants (UPLC-PDA-MS); details: for 4′,5-dihydroxy-diclofenac 1.38 mins / 4′-hydroxy-diclofenac (1) 1.62 mins / 5-hydroxy-diclofenac (2) 1.58 mins / Diclofenac (Substrate) 1.81 mins: % by UV peak area at 275 nm, 0.125 mg/ml substrate, 27° C., 16-20 hours; for Hydroxylated Ratio hydroxy 1:hydroxy 2: diclofenac, ratio of UV peak areas at 275nm
In short: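 Lyophilised CYP450aluC09 or mutants, with ferredoxin aluF03 and reductase SCF15A, incubated 16-20 hours at 27° C with 0.125 mg/ml diclofenac in 50 mM potassium phosphate pH 7.4, 5 mM MgCl2, and G6P/NADP/G6PDH regeneration. Acetonitrile-extracted; conversion by UPLC-PDA-MS against authentic hydroxylated standards.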

[2] = Hydroxylation of flufenamic acid catalysed by cytochrome P450 aluC09 and mutants; details: for Flufenamic Acid (Substrate) 1.93 mins / Hydroxy-Flufenamic Acid (1) 1.69 mins / Hydroxy-Flufenamic Acid (2) 1.65 mins: % by UV peak area at 275 nm, 0.125 mg/ml substrate, 27° C., 16-20 hours; for Hydroxylated Ratio 1:2: flufenamic acid, ratio of UV peak areas at 275 nm
In short: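 Lyophilised CYP450aluC09 mutants with ferredoxin aluF03 and reductase SCF15A, in 50 mM potassium phosphate pH 7.4, 5 mM MgCl2, 0.125 mg/ml flufenamic acid, G6P/NADP/G6PDH NADPH regeneration. Shaken 16-20 h at 27° C; acetonitrile-quenched, conversion to two hydroxy products by UPLC-MS.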

[3] = Hydroxylation of aceclofenac catalysed by cytochrome P450 aluC09 and mutants; details: for Aceclofenac (Substrate) (1.80 mins) / Dihydroxy-Aceclofenac (1.42 mins) / Hydroxy-Aceclofenac (1) (1.64 min) / Hydroxy-Aceclofenac (2) (1.60 min): % by UV peak area at 275 nm, 0.125 mg/ml substrate, 27° C., 16-20 hours; for Hydroxylated Ratio 2:1: aceclofenac, ratio of UV peak areas at 275 nm
In short: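 Conversion was assessed by UPLC-MS (UV and MS detection) after acetonitrile extraction of reactions run 16-20 h at 27° C, shaking. Reactions contained substrate at 0.125 mg/ml, P450 mutant plus ferredoxin and reductase partners, 1 mM NADP with glucose-6-phosphate regeneration, in phosphate buffer pH 7.4.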

[4] = Hydroxylation / de-N-ethylation of napropamide catalysed by cytochrome P450 aluC09 and mutants; details: for Desethyl Napropamide (1.62 min) / Desethyl-hydroxy-Napropamide (1.41 min) / Hydroxy-Napropamide (1) (1.53 min) / Hydroxy-Napropamide (2), (1.52 min) / M-2Da (unidentified) (1.89 min) / Napropamide (substrate): % by UV peak area at 275 nm, 0.125 mg/ml substrate, 27° C., 16-20 hours; for Hydroxylated Ratio 2:1: napropamide, ratio of UV peak areas
In short: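 Conversion of napropamide (0.125 mg/ml) to hydroxylated and de-ethylated metabolites was measured by UPLC-MS after acetonitrile extraction. Reactions ran 16-20 h at 27° C in pH 7.4 potassium phosphate (50 mM) with 5 mM MgCl2, 1 mM NADP, 5 mM G6P and 2 UN/ml G6PDH. Enzymes were lyophilised P450 aluC09 variants, ferredoxin aluF03 and ferredoxin reductase SCF15A.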

[5] = O-demethylation of indomethacin catalysed by cytochrome P450 aluC09 and mutants; details: % by UV peak area at 275 nm; 0.125 mg/ml substrate, 27° C., 16-20 hours
In short: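 Lyophilised CYP450aluC09 mutants with ferredoxin aluF03 and reductase SCF15A, 0.125 mg/ml substrate, 50 mM potassium phosphate pH 7.4, 5 mM MgCl2, G6P/G6PDH/NADP recycling. Shaken 16-20 h at 27° C. Acetonitrile-quenched, conversion measured by UPLC-MS.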

[6] = Metabolism of ritonavir by P450 aluC09 and mutants; details: percent of substrate being converted; 0.125 mg/ml, 27° C., 16-20 hours; [CYP] per enzyme as in Table 8
In short: (§1)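 Read-out was substrate conversion by UPLC-MS after acetonitrile extraction. Reactions had contained lyophilised aluC09 mutant enzymes with ferredoxin and ferredoxin reductase partners, substrate at 0.125 mg/ml, and a glucose-6-phosphate dehydrogenase NADPH-regenerating system, shaken 16-20 hours at 27° C.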

[7] = Metabolism of celecoxib by P450 aluC09 and mutants; details: percent of substrate being converted; 0.125 mg/ml, 27° C., 16-20 hours; [CYP] per enzyme as in Table 8
In short: as §1

[8] = Metabolism of epothilone B by P450 aluC09 and mutants; details: percent of substrate being converted; 0.125 mg/ml, 27° C., 16-20 hours; [CYP] per enzyme as in Table 8
In short: as §1

[9] = Metabolism of buparvaquone by P450 aluC09 and mutants; details: percent of substrate being converted; 0.125 mg/ml, 27° C., 16-20 hours; [CYP] per enzyme as in Table 8
In short: as §1

[10] = Metabolism of BIRB796 by P450 aluC09 and mutants; details: percent of substrate being converted; 0.125 mg/ml, 27° C., 16-20 hours; [CYP] per enzyme as in Table 8
In short: as §1

[11] = Metabolism of bosentan by P450 aluC09 and mutants; details: percent of substrate being converted; 0.125 mg/ml, 27° C., 16-20 hours; [CYP] per enzyme as in Table 8
In short: as §1

[12] = Metabolism of valsartan by P450 aluC09 and mutants; details: percent of substrate being converted; 0.125 mg/ml, 27° C., 16-20 hours; [CYP] per enzyme as in Table 8
In short: as §1

[13] = Metabolism of ruxolitinib by P450 aluC09 and mutants; details: percent of substrate being converted; 0.125 mg/ml, 27° C., 16-20 hours; [CYP] per enzyme as in Table 8
In short: as §1

[14] = Metabolism of 4-pyrrolidylacetophenone by P450 aluC09 and mutants; details: percent of substrate being converted; 0.125 mg/ml, 27° C., 16-20 hours; [CYP] per enzyme as in Table 8
In short: as §1

[15] = Metabolism of tivantinib by P450 aluC09 and mutants; details: percent of substrate being converted; 0.125 mg/ml, 27° C., 16-20 hours; [CYP] per enzyme as in Table 8
In short: as §1

[16] = Metabolism of tofacitinib by P450 aluC09 and mutants; details: percent of substrate being converted; 0.125 mg/ml, 27° C., 16-20 hours; [CYP] per enzyme as in Table 8
In short: as §1

Molecule	4′,5-dihydroxy-diclofenac 1.38 mins [1]	4′-hydroxy-diclofenac (1) 1.62 mins [1]	5-hydroxy-diclofenac (2) 1.58 mins [1]	Diclofenac (Substrate) 1.81 mins [1]	Hydroxylated Ratio hydroxy 1:hydroxy 2 [1]	Flufenamic Acid (Substrate) 1.93 mins [2]	Hydroxy-Flufenamic Acid (1) 1.69 mins [2]	Hydroxy-Flufenamic Acid (2) 1.65 mins [2]	Hydroxylated Ratio 1:2 [2]	Aceclofenac (Substrate) (1.80 mins) [3]	Dihydroxy-Aceclofenac (1.42 mins) [3]	Hydroxy-Aceclofenac (1) (1.64 min) [3]	Hydroxy-Aceclofenac (2) (1.60 min) [3]	Hydroxylated Ratio 2:1 [3]	Desethyl Napropamide (1.62 min) [4]	Desethyl-hydroxy-Napropamide (1.41 min) [4]	Hydroxy-Napropamide (1) (1.53 min) [4]	Hydroxy-Napropamide (2), (1.52 min) [4]	M-2Da (unidentified) (1.89 min) [4]	Napropamide (substrate) [4]	further results
B1	2.9%	44.5%	18.9%	35.6%	2.4	95.3%	2.9%	1.8%	1.6	29.8%	28.9%	11.9%	29.4%	2.5	45.6%	3.8%	1.0%	3.9%	6.2%	41.1%	Hydroxylated Ratio 2:1 [4]: 3.9; Indomethacin (1.74 mins) [5]: 83.8%; O-demethyl-Indomethacin (1.52 mins) [5]: 16.2%; % conversions (avg) Ritonavir [6]: 64.2%; % conversions (avg) Celecoxib [7]: 2.3%; % conversions (avg) Epothilone B [8]: 13.4%; % conversions (avg) Buparvaquone [9]: 4.1%; % conversions (avg) BIRB796 [10]: 13.6%; % conversions (avg) Bosentan [11]: 98.7%; % conversions (avg) Valsartan [12]: 61.9%; % conversions (avg) Ruxolitinib [13]: 30.8%; % conversions (avg) 4-pyrrolidylacetophenone [14]: 2.9%; % conversions (avg) Tivantinib [15]: 27.6%; % conversions (avg) Tofacitinib [16]: 0.7%
B2	1.8%	30.3%	10.8%	58.0%	2.8	95.9%	2.0%	2.1%	0.9	25.2%	27.8%	7.9%	39.1%	4.9	46.0%	9.7%	2.5%	5.3%	5.8%	34.1%	Hydroxylated Ratio 2:1 [4]: 2.1; Indomethacin (1.74 mins) [5]: 94.6%; O-demethyl-Indomethacin (1.52 mins) [5]: 5.4%; % conversions (avg) Ritonavir [6]: 31.9%; % conversions (avg) Celecoxib [7]: 5.4%; % conversions (avg) Epothilone B [8]: 50.8%; % conversions (avg) Buparvaquone [9]: 9.7%; % conversions (avg) BIRB796 [10]: 23%; % conversions (avg) Bosentan [11]: 100%; % conversions (avg) Valsartan [12]: 38%; % conversions (avg) Ruxolitinib [13]: 48.9%; % conversions (avg) 4-pyrrolidylacetophenone [14]: 30.8%; % conversions (avg) Tivantinib [15]: 7.2%; % conversions (avg) Tofacitinib [16]: 0%
B3	3.1%	27.0%	26.2%	45.2%	1.0	93.1%	4.5%	2.4%	1.9	18.0%	36.5%	5.7%	39.8%	7.0	44.8%	5.4%	2.0%	4.0%	6.6%	39.3%	Hydroxylated Ratio 2:1 [4]: 2.1; Indomethacin (1.74 mins) [5]: 83.6%; O-demethyl-Indomethacin (1.52 mins) [5]: 16.4%; % conversions (avg) Ritonavir [6]: 59.6%; % conversions (avg) Celecoxib [7]: 2.5%; % conversions (avg) Epothilone B [8]: 18.4%; % conversions (avg) Buparvaquone [9]: 14%; % conversions (avg) BIRB796 [10]: 13.4%; % conversions (avg) Bosentan [11]: 98.8%; % conversions (avg) Valsartan [12]: 28.9%; % conversions (avg) Ruxolitinib [13]: 46.6%; % conversions (avg) 4-pyrrolidylacetophenone [14]: 5.6%; % conversions (avg) Tivantinib [15]: 41.4%; % conversions (avg) Tofacitinib [16]: 1.4%
